Laboratory results published in paper PMC4804311.

Legend:
[1] = molecular target: CTD released by factor Xa from full-length proRgpB662iXa produced in P. gingivalis (Porphyromonas gingivalis W83) (UniProt P95493); test: cross-linking; glutaraldehyde (0.01-0.1%) in PBS, 5 min at 37 °C, stopped with 100 mM Tris; protein at 1, 0.5 and 0.1 mg/ml; SDS-PAGE and Western blot
[2] = molecular target: recombinant C-terminal domain (CTD) of gingipain B (RgpB) (Porphyromonas gingivalis W83) (UniProt P95493); test: cross-linking; data not shown: rCTD and r664i6H at 0.1 mg/ml exposed to 0.1, 0.05 and 0.01% glutaraldehyde
[3] = molecular target: recombinant C-terminal domain (CTD) of gingipain B (RgpB) (Porphyromonas gingivalis W83) (UniProt P95493); test: SEC; Superdex 75 10/300 GL, 50 mM Tris, 150 mM NaCl, 2.5 mM CaCl2, 0.02% NaN3 pH 7.5; fractions analysed by Western blot with anti-rCTD antibodies
[4] = molecular target: recombinant C-terminal domain (CTD) of gingipain B (RgpB) (Porphyromonas gingivalis W83) (UniProt P95493); test: cross-linking; glutaraldehyde (0.01-0.1%) in PBS, 5 min at 37 °C, stopped with 100 mM Tris; protein at 1, 0.5 and 0.1 mg/ml; SDS-PAGE and Western blot

Substance	stoichiometry N [1]	stoichiometry N [2]	stoichiometry N [3]	stoichiometry N [4]
CTD released by factor Xa from full-length proRgpB662iXa produced in P. gingivalis (from UniProt P95493 663-736) (domain or fragment)	2			
recombinant C-terminal domain (CTD) of gingipain B (RgpB) (from UniProt P95493 664-736) (domain or fragment)		2	2	2
